# Laboratory results taken from article PMC3440374, “High Inorganic Triphosphatase Activities in Bacteria and Mammalian Cells: Identification of the Enzymes Involved” (PLoS ONE, 2012).
# B1: GST-ygiF (Escherichia coli K-12) (protein)
# chain: MAQEIELKFIVNHSAVEALRDHLNTLGGEHHDPVQLLNIYYETPDNWLRGHDMGLRIRGENGRYEMTMKVAGRVTGGLHQRPEYNVALSEPTLDLAQLPTEVWPNGELPADLASRVQPLFSTDFYREKWLVAVDGSQIEIALDQGEVKAGEFAEPICELELELLSGDTRAVLKLANQLVSQTGLRQGSLSKAARGYHLAQGNPAREIKPTTILHVAAKADVEQGLEAALELALAQWQYHEELWVRGNDAAKEQVLAAISLVRHTLMLFGGIVPRKASTHLRDLLTQCEATIASAVSAVTAVYSTETAMAKLALTEWLVSKAWQPFLDAKAQGKISDSFKRFADIHLSRHAAELKSVFCQPLGDRYRDQLPRLTRDIDSILLLAGYYDPVVAQAWLENWQGLHHAIATGQRIEIEHFRNEANNQEPFWLHSGKR
# notes: produced in E. coli DH5alpha, GSTrap purified
# B2: EcPPase (Escherichia coli K-12) (protein)
# chain: SLLNVPAGKDLPEDIYVVIEIPANADPIKYEIDKESGALFVDRFMSTAMFYPCNYGYINHTLSLDGDPVDVLVPTPYPLQPGSVIRCRPVGVLKMTDEAGEDAKLVAVPHSKLSKEYDHIKDVNDLPELLKAQIAHFFEHYKDLEKGKWVKVEGWENAEAAKAEIVASFERAKNK
# notes: commercial purified recombinant preparation (Sigma-Aldrich); 20 kDa per subunit
# Experiments:
# CyaB = biological target: T1, CyaB (Aeromonas hydrophila, UniProt O69199); experiment: inorganic phosphate release, colorimetric; format: biochemical; details: 0.5 mM substrate, 5 mM Mg2+ or Mn2+, pH 9.1, 50°C
# T1 construct: full length from first Met, cloned in PVP16 as 8HIS-MBP fusion, tag removed by TEV digestion; produced in E. coli BL21DE3; nickel column
# T1 sequence (O69199 1-191): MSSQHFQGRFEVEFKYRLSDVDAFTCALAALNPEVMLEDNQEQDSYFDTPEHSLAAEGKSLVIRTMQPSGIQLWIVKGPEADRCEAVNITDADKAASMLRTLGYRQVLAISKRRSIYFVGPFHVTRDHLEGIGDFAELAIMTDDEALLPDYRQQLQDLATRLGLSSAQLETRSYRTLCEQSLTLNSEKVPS
# [1] = substrate: O=P(O)(O)OP(=O)(O)OP(=O)(O)O; experiment: inorganic phosphate release, colorimetric, Michaelis-Menten fit; format: biochemical, Escherichia coli; details: 5 mM Mg2+, pH 8.5, 50°C
# [2] = substrate: O=P(O)(O)OP(=O)(O)OP(=O)(O)O; experiment: inorganic phosphate release, colorimetric; format: biochemical, Escherichia coli; details: 10 mM Mg2+, 50 mM CHES pH 9.1, 25°C
molecule,measurement,setting,value
O=P(O)(O)OP(=O)(O)OP(=O)(O)O [PPPi],"inorganic phosphate release, colorimetric",CyaB,"it indeed hydrolyzes substrates such as ATP, ThTP and PPPi but at a low rate"
Cc1ncc(C[n+]2csc(CCOP(=O)(O)OP(=O)(O)OP(=O)(O)O)c2C)c(N)n1 [ThTP],"inorganic phosphate release, colorimetric",CyaB,"it indeed hydrolyzes substrates such as ATP, ThTP and PPPi but at a low rate"
B1,Km,[1],270 ± 25 µM
B2,Km,[2],910 ± 90 µM
same,kcat,[2],16.7 s⁻¹
